These results are taken from publication PMC6278910, “Reduced structural flexibility for an exonuclease deficient DNA polymerase III mutant†”.

The target in series [1] is T1, Pol III alpha Y453A (clamp-binding enhanced);Pol III epsilon exonuclease (clamp-binding enhanced);Pol III … (Escherichia coli;Escherichia …, UniProt P10443;P03007;P0ABS8;P0A988 1-1160;1-243;1-76;1-366, Y453A;A921L;M923L|T183L;M185L;A186P;F187L|E41C|). Briefly: smFRET; dCTP, Mg2+; kon,fast 0.7±0.1, kon,slow 0.05±0.01, koff 0.40±0.02 s-1; 20 mM Hepes pH 7.6, 5 mM potassium glutamate, 3 mM magnesium acetate, 2 mM DTT, 2 mM Trolox, 25 nM enzyme, 10 uM dCTP; temperature not stated. PIFE with unlabeled Pol III alpha or alpha-epsilon at 25 nM showed no binding (DNA not specified, not listed). The settings on record: protein: recombinant;recombinant;recombinant;recombinant, (HisTrap purification), Cy5 maleimide at C41;, copies: 1;1;1;2, label: 5' biotin-TEG and Cy3 (amino dT-C6) on template, 7 nt upstream from primer 3' terminus, 5' overhang 14 nt on template, matched G:ddC terminus.

Series [2] concerns the target T2, Pol III alpha (clamp-binding enhanced; called wild type);Pol III epsilon exonuclease (clamp-binding … (Escherichia coli;Escherichia …, UniProt P10443;P03007;P0ABS8;P0A988 1-1160;1-243;1-76;1-366, A921L;M923L|T183L;M185L;A186P;F187L|E41C|). In words: smFRET; dCTP, Mg2+; kon,fast 0.8±0.1, kon,slow 0.030±0.010, koff 0.20±0.01 s-1 (25 nM enzyme); 20 mM Hepes pH 7.6, 5 mM potassium glutamate, 3 mM magnesium acetate, 2 mM DTT, 2 mM Trolox, 25 nM enzyme, 10 uM dCTP; temperature not stated. PIFE with unlabeled Pol III alpha or alpha-epsilon at 25 nM showed no binding (DNA not specified, not listed). The settings on record: protein: recombinant;recombinant;recombinant;recombinant, (HisTrap purification), Cy5 maleimide at C41;, copies: 1;1;1;2, label: 5' biotin-TEG and Cy3 (amino dT-C6) on template, 7 nt upstream from primer 3' terminus, 5' overhang 14 nt on template, matched G:ddC terminus.

Series [3] concerns the target T1, Pol III alpha Y453A (clamp-binding …). Briefly: smFRET; dCTP, Mg2+; kon,fast 1.5±0.3, kon,slow 0.04±0.01, koff 0.30±0.02 s-1; 20 mM Hepes pH 7.6, 5 mM potassium glutamate, 3 mM magnesium acetate, 2 mM DTT, 2 mM Trolox, 25 nM enzyme, 10 uM dCTP; temperature not stated. PIFE with unlabeled Pol III alpha or alpha-epsilon at 25 nM showed no binding (DNA not specified, not listed). The settings on record: protein: recombinant;recombinant;recombinant;recombinant, (HisTrap purification), Cy5 maleimide at C41;, copies: 1;1;1;2, label: 5' biotin-TEG and Cy3 (amino dT-C6) on template, 7 nt upstream from primer 3' terminus, 5' overhang 14 nt on template, terminal G:A mismatch.

For series [4], the target named is T2, Pol III alpha (clamp-binding enhanced; …). Briefly: smFRET; dCTP, Mg2+; kon,fast 0.3±0.1, kon,slow 0.020±0.002, koff 0.20±0.01 s-1; 20 mM Hepes pH 7.6, 5 mM potassium glutamate, 3 mM magnesium acetate, 2 mM DTT, 2 mM Trolox, 25 nM enzyme, 10 uM dCTP; temperature not stated. PIFE with unlabeled Pol III alpha or alpha-epsilon at 25 nM showed no binding (DNA not specified, not listed). The settings on record: protein: recombinant;recombinant;recombinant;recombinant, (HisTrap purification), Cy5 maleimide at C41;, copies: 1;1;1;2, label: 5' biotin-TEG and Cy3 (amino dT-C6) on template, 7 nt upstream from primer 3' terminus, 5' overhang 14 nt on template, terminal G:A mismatch.

For series [5] the target is unchanged. In words: smFRET; non-hydrolyzable dCTP analog, Mg2+; kon,fast 0.6±0.1, kon,slow 0.020±0.007, koff 0.20±0.01 s-1; 20 mM Hepes pH 7.6, 5 mM potassium glutamate, 3 mM magnesium acetate, 2 mM DTT, 2 mM Trolox, 25 nM enzyme, 10 uM dCTP; temperature not stated. PIFE with unlabeled Pol III alpha or alpha-epsilon at 25 nM showed no binding (DNA not specified, not listed). Conditions: protein: recombinant;recombinant;recombinant;recombinant, (HisTrap purification), Cy5 maleimide at C41;, copies: 1;1;1;2, label: 5' biotin-TEG and Cy3 (amino dT-C6) on template, 7 nt upstream from primer 3' terminus, 5' overhang 14 nt on template, matched G:C terminus.

Series [6] concerns the target T1, Pol III alpha Y453A (clamp-binding …). Briefly: smFRET; non-hydrolyzable dCTP analog (stated for wild type), Mg2+; kon,fast 0.8±0.1, kon,slow 0.04±0.01, koff 0.30±0.01 s-1; 20 mM Hepes pH 7.6, 5 mM potassium glutamate, 3 mM magnesium acetate, 2 mM DTT, 2 mM Trolox, 25 nM enzyme, 10 uM dCTP; temperature not stated. PIFE with unlabeled Pol III alpha or alpha-epsilon at 25 nM showed no binding (DNA not specified, not listed). The settings on record: protein: recombinant;recombinant;recombinant;recombinant, (HisTrap purification), Cy5 maleimide at C41;, copies: 1;1;1;2, label: 5' biotin-TEG and Cy3 (amino dT-C6) on template, 7 nt upstream from primer 3' terminus, 5' overhang 14 nt on template, matched G:C terminus.

Series [7] has the same target. Briefly: smFRET; dCTP, Mg2+; kon N.D., koff 0.30±0.02 s-1; 20 mM Hepes pH 7.6, 5 mM potassium glutamate, 3 mM magnesium acetate, 2 mM DTT, 2 mM Trolox, 25 nM enzyme, 10 uM dCTP; temperature not stated. PIFE with unlabeled Pol III alpha or alpha-epsilon at 25 nM showed no binding (DNA not specified, not listed). Conditions: protein: recombinant;recombinant;recombinant;recombinant, (HisTrap purification), Cy5 maleimide at C41;, copies: 1;1;1;2, label: 5' biotin-TEG and Cy3 (amino dT-C6) on template, 7 nt upstream from primer 3' terminus, 5' overhang 14 nt on template, terminal double mismatch.

Series [8] deals with T2, Pol III alpha (clamp-binding enhanced; …). The series is described as above. Conditions: protein: recombinant;recombinant;recombinant;recombinant, (HisTrap purification), Cy5 maleimide at C41;, copies: 1;1;1;2, label: 5' biotin-TEG and Cy3 (amino dT-C6) on template, 7 nt upstream from primer 3' terminus, 5' overhang 14 nt on template, terminal double mismatch.
Series [9] concerns the target T1, Pol III alpha Y453A (clamp-binding …). Briefly: smFRET; dCTP, Mg2+; kon,fast 0.6±0.1, kon,slow 0.05±0.01, koff 0.30±0.01 s-1; 20 mM Hepes pH 7.6, 5 mM potassium glutamate, 3 mM magnesium acetate, 2 mM DTT, 2 mM Trolox, 25 nM enzyme, 10 uM dCTP; temperature not stated. PIFE with unlabeled Pol III alpha or alpha-epsilon at 25 nM showed no binding (DNA not specified, not listed). Conditions: protein: recombinant;recombinant;recombinant;recombinant, (HisTrap purification), Cy5 maleimide at C41;, copies: 1;1;1;2, label: 5' biotin-TEG and Cy3 (amino dT-C6) on template, 7 nt upstream from primer 3' terminus, 5' overhang 14 nt on template, terminal G:T mismatch.

The target in series [10] is T2, Pol III alpha (clamp-binding enhanced; …). Briefly: smFRET; dCTP, Mg2+; kon,fast 0.6±0.1, kon,slow 0.010±0.003, koff 0.20±0.01 s-1; 20 mM Hepes pH 7.6, 5 mM potassium glutamate, 3 mM magnesium acetate, 2 mM DTT, 2 mM Trolox, 25 nM enzyme, 10 uM dCTP; temperature not stated. PIFE with unlabeled Pol III alpha or alpha-epsilon at 25 nM showed no binding (DNA not specified, not listed). Conditions: protein: recombinant;recombinant;recombinant;recombinant, (HisTrap purification), Cy5 maleimide at C41;, copies: 1;1;1;2, label: 5' biotin-TEG and Cy3 (amino dT-C6) on template, 7 nt upstream from primer 3' terminus, 5' overhang 14 nt on template, terminal G:T mismatch.

B1: G:ddC (dsDNA)
DNA 1: CATAATATCCTCAGGAGTCCTTCGTCCTAGTACTACTCA
DNA 2: TGAGTAGTACTAGGACGAAGGACTC
modifications: 3' dideoxycytosine on primer
For B1, the binding result in [1] and in [2] was “binds” in each case.

B2: G:A (dsDNA)
DNA 1: B1 DNA 1
DNA 2: TGAGTAGTACTAGGACGAAGGACTA
modifications: phosphorothioate in primer (position not given)
Turning to B2, the binding result in series [3] and in [4] was “binds” in each case.

B3: G:C (dsDNA)
DNA 1: B1 DNA 1
DNA 2: TGAGTAGTACTAGGACGAAGGACTC
Regarding B3, the binding result in [5] and in series [6] was “binds” in each case.

B4: G:AA (dsDNA)
DNA 1: B1 DNA 1
DNA 2: TGAGTAGTACTAGGACGAAGGACAA
modifications: phosphorothioate not stated for this DNA
Regarding B4, the binding result in series [7] and in [8] was “binds” in each case.

B5: G:T (dsDNA)
DNA 1: B1 DNA 1
DNA 2: TGAGTAGTACTAGGACGAAGGACTT
modifications: phosphorothioate in primer (position not given)
Regarding B5, the binding result in series [9] and in series [10] was “binds” in each case.
